The text below walks through data of the DeepSol protein solubility set.

The data set is described as follows: soluble on expression in E. coli; label from the status in PepcDB or PDB records.
As to “MSLSTGTMTLHRRLQVEYGLYQDRGRRPTMEDAHTVVSSLPIPQLEEQDEGNTTVSLFAIMDGHCGDSASYYSAAQLASKVSECWPCCMTTSSIVSSLHNAHILMDAQFLEIARSSNILAGCTCLSTVIVTEAHRIRIFTANLGDSRAILCRHGAFSAWLKFSPPSAAAEANANRLNLISFFPGSRLVIPLSLDQKPNISPDRERIEAAGAFTYPSLIKYKDKIAIRGPHRIFPGGLAVPRAIGDLPYKDMTYLNSLGVSAPLVSSDPVISIYDLTEQDEFILQACDGLWDVISSKEAAIFASVMHYIHQLARMPHKAFKKLRRPLKQILFKMGVTSYYSPTSVAVAEALCNHAKLRGSQDNVTVSVIFPEFIKSEGHHHHHH”, the “soluble on expression in E. coli” value is reported as “not soluble”.
Then “MSLSVAVSPLAPKSYPDMPALRGVRMATAAAGIKYKNRTDVLLMVFDKPASVAGVFTKSKCPSAPVDFCRANLGSGAARAVVVNSGNANAFTGVKGKAATELTAKSAAAAVGCSEGEIFLASTGVIGEPLDASKFAGVLGDMNVRAEADFWQEAAKAIMTTDTYPKVSTRTAEIGGVIVTINGISKGAGMIAPDMATMLSFVVTDADIEPAALQSLLSAGVGPTFNSVTVDSDTSTSDTLMLFATGAAAEDGQVKVTSADDERLSSFRAALNDLLKDLALQVVRDGEGARKMVEVTVTGAENDAAAKKIALSIANSPLVKTAVAGEDANWGRVVMAVGKSGEMADRDRLAIWFGGVRVAVNGERDPDYSEAETTAVMRLEDITVKVDIGLGQGTATVWTCDLTKEYVAINGDYRSEGHHHHHH”, with “not soluble”; and “MSLSVEFNKQQVRPRSEISPQDCWDITPLYLNRKAWKADLDSFGLKTDGSPTWPALQATQYQLDNSESLLSLLTTLFSIERKLNKLYVYAHLTHDQDITNQEGIADLKSITHLHTLFAEETSWVQPALTSLSESLIAQHLSAPCLAPYRFYLEKIFRLSIHTGTPGEEKILASAFTPLEVASKAFSSLSDSEIPFGQATDSEGNSHPLSHALASLYMQSTDRELRKTSYLAQCERYHSYRHTFANLLNGKIQAHVFYAKNKRYNSCLQAALYHNNIPTTVYTNLIDIVKKNSSLITKYFSIKQRCLNLKDFHFYDVYAPLSQSKEKKYTFQEAVDLIYTSLSPLGTEYIDTLKQGLTTQGWVDKYENLNKRSGAYSSGCYDSHPYVLLNYTGTLYDVSVIAHEGGHSMHSYFSRKHQPFHDAQYPIFLAEIASTLNEMLLMDSMLKESDSKEEKITILTRCLDTIFSTLFRQVLFASFEYDIHHAAEHGVPLTEEYLSSTYKNLQNEFYGEIITFDVLSNIEWARIPHFYYNFYVYQYATGIIAALCFLEKILNNEDNALNSYLNFLKSGGSDFPLEILKKSGLDMGTVEPIQKAFCFIEKKIQELSSLIEGHHHHHH”, with “soluble”; and “MSLSVKILALDTATERCSVALLVGNTVYSRSEIAPRDHTKKVLPMVDEVLKEAGVTLQELDALAFGRGPGSFTGVRIGIGIAQGLAFGADLPMIGISTLAAMAQAAYRLQGLTHVASAIDARMEEVYWGRYVRQEDGSWQVAEAECVIAPALLAQTLTQDDLTQDEQIWATAGTGWDAYPALADLPLQLQTSEVLYPDAQDMAYLAQFELAQGNKVSVEQASPVYLRDTVAWKKLPGREEGHHHHHH”, with “soluble”.
Then “MSLSVKIVIKPNTYFDSVSLMSISTRANKLDGVEQAFVAMATEMNKGVLKNLGLLTPELEQAKNGDLMIVINGKSGADNEQLLVEIEELFNTKAQSGSHEARYATIGSAKKHIPESNLAVISVNGLFAAREARQALQNDLNVMLFSDNVSVEDELALKQLAHEKGLLMMGPDCGTAIINGAALCFGNAVRRGNIGIVGASGTGSQELSVRIHEFGGGVSQLIGTGGRDLSEKIGGLMMLDAIGMLENDPQTEIIALISKPPAPAVARKVLERARACRKPVVVCFLDRGETPVDEQGLQFARGTKEAALKAVMLSGVKQENLDLHTLNQPLIADVRARLQPQQKYIRGLFCGGTLCDETMFAVMEKHGDVYSNIQPDPEFRLKDINRSIKHTFLDFGDDDFTNGKPHPMIDPTNRISRLIEEARDPEVAVIVMDFVLGFGSHEDPVGSTIETIKEAKAIAAAEGRELIILAYVLGTDLDTPSLEQQSQMLLDAGVILASSSTNTGLLAREFICKGEEGHHHHHH”, with “soluble”.
Then “MSLSVLKICTKDQKGLIYRISDVIFKYHINIVKNDEFVGEGMFFFRALLEGEFDKEAFIGTLEAMLGQEALIELCEKRKKDIVVFATKESHCLGDLLIKHYSNELEANIKAVISNHNSLKDLVEKFEIPYHFISAENLDRKEQENQILKCLEQYKFDYLVLAKYMRILSPDFVRHFEGKIINIHHSFLPAFIGANPYKQAFERGVKIIGATAHFVNNNLDEGPIITQAVSPVNHEFTWQDMQQAGRNIEKDVLSKALDLAFEDRIFIHNNKTIIFEGHHHHHH”, with “soluble”; and “MSLSVPQKRYFLGLHIGHDRAITVADDTNLVFHTAVERLDRKKHSDSFHLPVEEIKTVLLYLNVDVSELRGVCISYLAVDASRVSMTLEASFRDAFPDFEGRFSALDHHLAHALGAKVCSGFDEALVVVADGAGDQRLWGSQSETIYHVSSDTFYLLDERVQSPPLTYINRPEFYDPSYFRPDDQERQISLGLKYEQITYLCGFGPGQAGQTMALAAFGKPLFDYRNMLPKDLSFSLRYTDFLREFEALARADGLSLIQFAKSRRSDIAATYQAYLSEALSAIVKDALDRFPSKRVCFSGGLFLNCLSNRRLHDEHPDRELFFFPACNDEGQSIGTAAYAYWQEHSRLPREGHHHHHH”, with “not soluble”.
Take “MSLSVVERIFNHSESRPDCIAVYENDRTISYENLASDIKKTAAKLVSLGVTSEDAVLVRSNNSYSFILLYFSIHYVGAKFVNVAPDSDVSYVSFIEDKVNPKLFIEKSQDFIRNIDSYTFDNIFPPQARGIADIMFTSGTTGEPKGVLLSHKSLVLATEHIISHVKNTNEDVELLLMPLSHSFAMARMRTSLFAGGAIVVGCSFKQLKSVFKAIEFYKVTGLGLVPSAWSYITLMTKDLIRKYSEQLNFIEFGSAHFPFEDKKQVAEWFPNTNVVMHYGLTEVSRATFIDFHNDDINAVGHRYRGADFKIIDNKGAEVIEGEEGEIVFKAPWMLDGYFENSQLTSDCFVEGYFKTGDLGRVVGDYLFLTGRLKEIINVGGKKVSPDQVEKVLSEALGVQECACAALSDANMGEVVQAYIVVKSGWDCENVISNIKETINGQLPMHMRPKKYSIVSALPKTVSGKVQRYKLSSEGHHHHHH”: the “soluble on expression in E. coli” value was “soluble”.
Then “MSLSVYEKVNALDKRAIEELFLSEDILMENAAMALERAVLQNASLGAKVIILCGSGDNGGDGYALARRLVGRFRVLVFEMKLTKSPMCQLQKERAKKAGVVIKTYEENALNQNLECDVLIDCVIGSHFKGKLEPFLNFESLSQKARFKIACDIPSGIDSKGRVDKRAFKADLTISMGAIKSCLLSDRAKDYVGELKVGHLGVFNPIYEIPTDTFLLEKSDLKLPLRDKKNAHKGDYGHAHVLLGKHSGAGLLSALSALSFGSGVVSVQALECEITSNNKPLELVFCENFPNLLSAFALGMGLENIPKDFNRWLELAPCVLDAGVFYHKEILQALEKEAVLTPHPKEFLSLLNLVGINISMLELLDNKLEIARDFSQKYPKVVLLLKGANTLIAHQGQVFINILGSVALAKAGSGDVLAGLILSLLSQNYTPLDAAINASLAHALASLEFKNNYALTPLDLIEKIKQLEGHHHHHH”, with “soluble”; and “MSLTADTSLSSIQEAINVVQQYNATDPVRLKLFHTPRMVSQGAHFAFCLPTKKPHYKPLLLSQNALDEFNLVQDQDLEKILSGEKVYYSDSIFPYSTVYSGFQFGSFAAQLGDGRVVNLFDLKDKCSGQWQTFQLKGAGMTPFSRFADGKAVLRSSIREFIMSEALHSIGIPSTRAMQLTLLPGTKAQRRNQEPCAVVCRFAPSWIRLGNFNLFRWRHDLKGLIQLSDYCIEELFAGGTQFEGKPDFNIFKRDFFPDTETKIDEQVEKDETEVSTMTGDNISTLSKYDEFFRHVVSLNANTVAHWQAYGFANGVLNTDNTSIMGLTIDYGPFAFLDKFEPSFTPNHDDTAKRYSFANQPSIIWWNLQQFAKDLACLLGPEARDLELLLKGELNSVDDALEKTMIERVQKLVELSANEYKYVFTTRYAQIMSQRLGVDLDLEKCMSSTNLKDIEHAAEKAKEFCDVIVEPLLDILQATKVDYNNFFIHLQNYKGPFFIKDKSDTATLFGAFDEEYLGMFFNSKQLQQMAETEEAFAAGEKVFDANGELRLLNEKLQEIRNWTQDYLTLVPPTETAARASLAKKANPLFVPRSWVLEEVVDDLMYSQRDGLQDPSSELDTSALKKLYLMSVNPYDRTKWDVTLRPELETKWADLSHQDDAKFMMQASCSSEGHHHHHH”, with “soluble”; and “MSLTESFSTPKFHISPTGMIMEGAQLHIKCTIQVTHLAQEFPEIIIQKDKAIVAHNRHGNKAVYSVMAMVEHSGNYTCKVESSRISKVSSIVVNITELFSKPELESSFTHLDQGERLNLSCSIPGAPPANFTIQKEDTIVSQTQDFTKIASKSDSGTYICTAGIDKVVKKSNTVQIVVCEMLSQPRISYDAQFEVIKGQTIEVRCESISGTLPISYQLLKTSKVLENSTKNSNDPAVFKDNPTEDVEYQCVADNCHSHAKMLSEVLRVKVIAPVDEVQISILSSKVVESGEDIVLQCAVNEGSGPITYKFYREKEGKPFYQMTSNATQAFWTKQKASKEQEGEYYCTAFNRANHASSVPRSKILTVRVIEGHHHHHH”, with “not soluble”.
Turning to “MSLTEYVDAVPAASMTVCTVQHTDTTPQHSINEDRVIPLDSNKGIADMEFGDAHTLAHRVSASAERMYRFSSIETTQFIKILLRKMAARMASLASCHTHVYASSHSLPWDSACEHYIFGMRRILIEGHHHHHH”, the “soluble on expression in E. coli” value is “not soluble”.
With “MSLTGFLLLHGTIVTVDRERRIIEDGALAINDDRIVDIGTVDELEPRHGGKEVIDCRGKLIIPGLIDAHGHAGHALLRSIAADTNAMWMKIITPTYYHYVTRDYWYADGLISGIERLRAGVTTGASIITSMPRADDPVFAINHARAYSELGLREIICVGPSGLPWPHPVTRWESGQPERRDVSFDEMMDGSEAVIETLHGSADGRISVFLTPFTIVPSVEPSNASSPDQAVKLTEGDRMQARRVREMARKRGVRLHSDAFAGQIRMAFQDKENALLGPDIHLQHCWGISHDEIDILAETGTRVTHAPPGRSTPIMEMMSKSIRVAITTDGAAPSRHFDMLQTARLAQFTQHLLHNHDRYLLPPGKIFEMITIDAAHAIGMEDEIGSLEIGKKADVVIIDMRKPHLMPMWMPVHRLVHQALGSDVDTVFVDGKLLMDNGRVLTSDVDAAITFGQQEAMALAERAGLKVHMHDPGWGRLLRTFDEQVYPPRPPKDASYRVTDHESGQDHEGHHHHHH”, the “soluble on expression in E. coli” value is “soluble”.
